Measurements reported in paper PMC3062689 (Biochemistry, 2011).
Like-named read-outs stand apart in the source and are kept apart here. Values belong to the molecule of their own block, whether it stands above or below them.

Tests used:
Experiment in all cases: SEC-MALS
[1] = target: Mouse arrestin-1-(F86A,F198A) (mouse) (UniProt P20443)
[2] = target: Mouse arrestin-1-(F86A,F198A, A349V) (mouse) (UniProt P20443)
[3] = target: the molecule itself
[4] = target: the molecule itself; remark: listed apart in the source
[5] = target: the molecule itself; remark: listed apart in the source
[6] = target: the molecule itself; remark: listed apart in the source

Kd [1]: 537 µM | log Kdim (association constant) [1]: 3.27 | stoichiometry N [1]: 2
Molecule: Mouse arrestin-1-(F86A,F198A) (from UniProt P20443 1-403) (natural protein)

Kd [2]: 724 µM | log Kdim (association constant) [2]: 3.14 | stoichiometry N [2]: 2
Molecule: Mouse arrestin-1-(F86A,F198A, A349V) (from UniProt P20443 1-403) (natural protein)

B1: wild type mouse arrestin-1 (natural protein, UniProt P20443 1-403, looked up)
chain: MAACGKTNKSHVIFKKVSRDKSVTIYLGKRDYVDHVSQVEPVDGVVLVDPELVKGKKVYVTLTCAFRYGQEDIDVMGLTFRRDLYFSRVQVYPPVGAMSVLTQLQESLLKKLGDNTYPFLLTFPDYLPCSVMLQPAPQDVGKSCGVDFEVKAFASDITDPEEDKIPKKSSVRLLIRKVQHAPPEMGPQPSAEASWQFFMSDKPLNLSVSLSKEIYFHGEPIPVTVTVTNNTDKVVKKIKVSVEQIANVVLYSSDYYVKPVASEETQEKVQPNSTLTKTLVLVPLLANNRERRGIALDGKIKHEDTNLASSTIIKEGIDRTVMGILVSYHIKVKLTVSGFLGELTSSEVATEVPFRLMHPQPEDPAKESVQDENLVFEEFARQNLKDTGENTEGKKDEDAGQDE
stoichiometry N [3]: 4 | stoichiometry N [4]: 2 | Kd [5]: 57.5 µM | Kd [6]: 63.1 µM

B2: wild type human arrestin-1 (natural protein, UniProt P10523 1-405, looked up)
chain: MAASGKTSKSEPNHVIFKKISRDKSVTIYLGNRDYIDHVSQVQPVDGVVLVDPDLVKGKKVYVTLTCAFRYGQEDIDVIGLTFRRDLYFSRVQVYPPVGAASTPTKLQESLLKKLGSNTYPFLLTFPDYLPCSVMLQPAPQDSGKSCGVDFEVKAFATDSTDAEEDKIPKKSSVRLLIRKVQHAPLEMGPQPRAEAAWQFFMSDKPLHLAVSLNKEIYFHGEPIPVTVTVTNNTEKTVKKIKAFVEQVANVVLYSSDYYVKPVAMEEAQEKVPPNSTLTKTLTLLPLLANNRERRGIALDGKIKHEDTNLASSTIIKEGIDRTVLGILVSYQIKVKLTVSGFLGELTSSEVATEVPFRLMHPQPEDPAKESYQDANLVFEEFARHNLKDAGEAEEGKRDKNDVDE
Kd [5]: 2.95 µM | Kd [6]: 224 µM
